{
  "source": "patent KR20150077770A",
  "about": "(dated 2015)",
  "key": {"[1]": {"biological_target": "T1, NRS (Asparaginyl-tRNA synthetase), purified recombinant (UniProt O43776 1-548, limits assumed)", "T1 construct": "also called 아스파라기닐딜-tRNA 합성효소", "T1 sequence (looked up)": "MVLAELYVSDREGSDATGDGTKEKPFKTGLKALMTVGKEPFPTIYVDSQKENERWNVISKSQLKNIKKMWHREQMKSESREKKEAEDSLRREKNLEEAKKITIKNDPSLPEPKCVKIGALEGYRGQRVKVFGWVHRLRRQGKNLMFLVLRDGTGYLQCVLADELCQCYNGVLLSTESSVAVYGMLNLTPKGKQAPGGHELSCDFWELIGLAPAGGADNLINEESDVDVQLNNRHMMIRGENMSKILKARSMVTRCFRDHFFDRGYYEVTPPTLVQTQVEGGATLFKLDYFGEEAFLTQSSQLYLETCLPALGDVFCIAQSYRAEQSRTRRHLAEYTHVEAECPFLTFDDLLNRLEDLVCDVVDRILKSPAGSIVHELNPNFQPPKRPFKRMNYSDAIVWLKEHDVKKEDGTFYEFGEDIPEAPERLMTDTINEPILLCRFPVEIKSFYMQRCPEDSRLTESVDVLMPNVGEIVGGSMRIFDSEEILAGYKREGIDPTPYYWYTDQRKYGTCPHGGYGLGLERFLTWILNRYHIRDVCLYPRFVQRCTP", "test": "Luminex multiplex bead assay, anti-HA-biotin / SA-PE detection"}, "[2]": {"biological_target": "T2, AIMP1 (Aminoacyl-tRNA-synthetase-interacting multifunctional protein 1), purified recombinant (UniProt Q12904 1-312, limits assumed)", "T2 construct": "also called AIMP1(p43); p43", "T2 sequence (looked up)": "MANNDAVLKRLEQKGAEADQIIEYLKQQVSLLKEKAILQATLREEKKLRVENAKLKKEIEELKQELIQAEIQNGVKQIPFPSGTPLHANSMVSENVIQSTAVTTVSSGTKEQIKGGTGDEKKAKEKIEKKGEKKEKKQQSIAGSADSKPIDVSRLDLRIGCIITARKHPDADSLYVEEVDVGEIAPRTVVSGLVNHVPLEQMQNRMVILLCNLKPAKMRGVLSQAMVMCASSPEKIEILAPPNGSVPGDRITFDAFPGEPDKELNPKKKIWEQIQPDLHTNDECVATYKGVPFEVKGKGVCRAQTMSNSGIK", "test": "Luminex multiplex bead assay, anti-HA-biotin / SA-PE detection"}, "[3]": {"biological_target": "T3, KRS (Lysyl-tRNA synthetase), purified recombinant (UniProt Q15046 1-597, limits assumed)", "T3 construct": "also called 리실-tRNA 합성효소", "T3 sequence (Q15046 whole entry)": "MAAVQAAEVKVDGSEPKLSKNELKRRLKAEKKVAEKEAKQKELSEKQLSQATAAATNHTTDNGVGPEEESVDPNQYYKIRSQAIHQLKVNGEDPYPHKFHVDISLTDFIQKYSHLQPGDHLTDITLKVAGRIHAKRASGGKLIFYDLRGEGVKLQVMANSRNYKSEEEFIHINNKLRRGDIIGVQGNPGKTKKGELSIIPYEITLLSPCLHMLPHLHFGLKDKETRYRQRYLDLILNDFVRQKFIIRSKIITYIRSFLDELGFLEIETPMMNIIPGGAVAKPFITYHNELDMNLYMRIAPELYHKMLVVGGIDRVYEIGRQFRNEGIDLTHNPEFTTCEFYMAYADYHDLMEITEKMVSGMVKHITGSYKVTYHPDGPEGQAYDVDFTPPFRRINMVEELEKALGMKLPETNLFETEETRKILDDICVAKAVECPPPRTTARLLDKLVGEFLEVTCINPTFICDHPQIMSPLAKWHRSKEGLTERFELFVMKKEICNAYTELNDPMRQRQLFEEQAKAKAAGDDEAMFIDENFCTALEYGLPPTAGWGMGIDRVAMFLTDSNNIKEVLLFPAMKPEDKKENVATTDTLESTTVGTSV", "test": "Luminex multiplex bead assay, anti-HA-biotin / SA-PE detection"}, "[4]": {"biological_target": "T4, YRS (Tyrosyl-tRNA synthetase), purified recombinant (UniProt P54577 1-528, limits assumed)", "T4 construct": "also called 타이로실-tRNA 합성효소", "T4 sequence (looked up)": "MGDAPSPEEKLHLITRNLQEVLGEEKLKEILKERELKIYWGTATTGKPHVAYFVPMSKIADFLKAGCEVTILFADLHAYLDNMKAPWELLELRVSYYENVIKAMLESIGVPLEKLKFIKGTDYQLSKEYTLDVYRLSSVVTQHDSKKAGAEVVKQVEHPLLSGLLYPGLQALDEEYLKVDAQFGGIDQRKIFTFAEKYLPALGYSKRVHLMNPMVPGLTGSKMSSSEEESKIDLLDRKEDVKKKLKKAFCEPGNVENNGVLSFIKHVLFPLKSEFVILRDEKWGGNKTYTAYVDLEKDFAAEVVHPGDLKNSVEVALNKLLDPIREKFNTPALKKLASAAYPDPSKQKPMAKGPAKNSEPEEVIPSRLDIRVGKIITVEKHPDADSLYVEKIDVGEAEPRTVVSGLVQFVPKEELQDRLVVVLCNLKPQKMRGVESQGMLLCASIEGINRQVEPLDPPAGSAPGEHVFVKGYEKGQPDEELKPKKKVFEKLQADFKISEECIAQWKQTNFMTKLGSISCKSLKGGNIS", "test": "Luminex multiplex bead assay, anti-HA-biotin / SA-PE detection"}, "[5]": {"biological_target": "T5, GRS (Glycyl-tRNA synthetase), purified recombinant (UniProt P41250 55-739, limits assumed)", "T5 construct": "also called 글리실-tRNA 합성효소", "T5 sequence (looked up)": "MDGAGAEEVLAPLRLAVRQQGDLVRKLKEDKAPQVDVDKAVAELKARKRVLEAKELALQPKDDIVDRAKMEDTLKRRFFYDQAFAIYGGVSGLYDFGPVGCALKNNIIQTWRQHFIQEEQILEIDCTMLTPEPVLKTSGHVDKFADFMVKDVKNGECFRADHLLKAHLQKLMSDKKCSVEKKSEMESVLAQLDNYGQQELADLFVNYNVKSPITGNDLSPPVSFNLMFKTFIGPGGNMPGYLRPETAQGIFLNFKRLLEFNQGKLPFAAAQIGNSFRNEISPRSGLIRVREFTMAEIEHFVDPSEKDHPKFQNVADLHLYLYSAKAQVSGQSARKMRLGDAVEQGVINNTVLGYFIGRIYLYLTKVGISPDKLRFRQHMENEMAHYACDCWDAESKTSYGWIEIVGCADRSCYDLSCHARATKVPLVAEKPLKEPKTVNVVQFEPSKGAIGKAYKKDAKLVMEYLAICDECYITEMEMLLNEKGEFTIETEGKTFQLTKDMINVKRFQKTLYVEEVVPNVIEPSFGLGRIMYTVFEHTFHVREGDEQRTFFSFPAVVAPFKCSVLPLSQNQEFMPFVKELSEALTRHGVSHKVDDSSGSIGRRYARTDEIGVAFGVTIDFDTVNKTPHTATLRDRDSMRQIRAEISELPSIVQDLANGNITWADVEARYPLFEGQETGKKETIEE", "test": "Luminex multiplex bead assay, anti-HA-biotin / SA-PE detection"}, "[6]": {"biological_target": "T6, WRS (Tryptophanyl-tRNA synthetase), purified recombinant (UniProt P23381 1-471, limits assumed)", "T6 construct": "also called 트립토파닐-tRNA 합성효소", "T6 sequence (looked up)": "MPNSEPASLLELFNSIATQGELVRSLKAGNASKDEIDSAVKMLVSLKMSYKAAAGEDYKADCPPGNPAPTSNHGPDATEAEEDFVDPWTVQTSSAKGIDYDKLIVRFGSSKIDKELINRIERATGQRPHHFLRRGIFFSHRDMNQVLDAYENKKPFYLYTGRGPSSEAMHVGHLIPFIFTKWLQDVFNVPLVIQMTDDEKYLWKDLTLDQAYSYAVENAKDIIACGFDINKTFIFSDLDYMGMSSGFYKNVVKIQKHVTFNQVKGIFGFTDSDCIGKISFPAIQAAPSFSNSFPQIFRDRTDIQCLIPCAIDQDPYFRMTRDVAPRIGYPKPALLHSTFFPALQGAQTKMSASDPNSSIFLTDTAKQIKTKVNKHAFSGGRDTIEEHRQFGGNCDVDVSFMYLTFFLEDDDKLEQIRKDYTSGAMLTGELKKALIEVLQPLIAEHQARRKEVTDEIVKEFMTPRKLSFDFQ", "test": "Luminex multiplex bead assay, anti-HA-biotin / SA-PE detection"}, "[7]": {"biological_target": "T7, SRS (Seryl-tRNA synthetase), purified recombinant (UniProt P49591 1-514, limits assumed)", "T7 construct": "also called 세릴-tRNA 합성효소", "T7 sequence (P49591 whole entry)": "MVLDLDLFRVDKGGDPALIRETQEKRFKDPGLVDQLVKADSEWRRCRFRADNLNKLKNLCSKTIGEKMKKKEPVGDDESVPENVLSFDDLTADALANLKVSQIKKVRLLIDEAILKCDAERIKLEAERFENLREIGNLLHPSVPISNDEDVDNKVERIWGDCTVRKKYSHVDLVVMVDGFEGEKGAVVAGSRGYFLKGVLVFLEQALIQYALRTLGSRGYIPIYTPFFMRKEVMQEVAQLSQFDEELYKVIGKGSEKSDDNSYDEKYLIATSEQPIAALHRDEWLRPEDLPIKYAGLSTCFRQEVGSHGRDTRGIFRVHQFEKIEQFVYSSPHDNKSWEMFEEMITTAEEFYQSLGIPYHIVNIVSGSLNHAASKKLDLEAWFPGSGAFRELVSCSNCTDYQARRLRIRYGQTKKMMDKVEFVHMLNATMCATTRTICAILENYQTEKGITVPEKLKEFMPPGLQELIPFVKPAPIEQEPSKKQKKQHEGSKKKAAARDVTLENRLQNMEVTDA", "test": "Luminex multiplex bead assay, anti-HA-biotin / SA-PE detection"}, "[8]": {"biological_target": "T8, HRS (Histidyl-tRNA synthetase), purified recombinant antigen (human, UniProt P12081 1-509, limits assumed)", "T8 construct": "It was immobilised on the GLC chip (SPR), coupled to Luminex beads and used as the ELISA standard; also called HRS 항원; 재조합 HRS 표준물질", "T8 sequence (looked up)": "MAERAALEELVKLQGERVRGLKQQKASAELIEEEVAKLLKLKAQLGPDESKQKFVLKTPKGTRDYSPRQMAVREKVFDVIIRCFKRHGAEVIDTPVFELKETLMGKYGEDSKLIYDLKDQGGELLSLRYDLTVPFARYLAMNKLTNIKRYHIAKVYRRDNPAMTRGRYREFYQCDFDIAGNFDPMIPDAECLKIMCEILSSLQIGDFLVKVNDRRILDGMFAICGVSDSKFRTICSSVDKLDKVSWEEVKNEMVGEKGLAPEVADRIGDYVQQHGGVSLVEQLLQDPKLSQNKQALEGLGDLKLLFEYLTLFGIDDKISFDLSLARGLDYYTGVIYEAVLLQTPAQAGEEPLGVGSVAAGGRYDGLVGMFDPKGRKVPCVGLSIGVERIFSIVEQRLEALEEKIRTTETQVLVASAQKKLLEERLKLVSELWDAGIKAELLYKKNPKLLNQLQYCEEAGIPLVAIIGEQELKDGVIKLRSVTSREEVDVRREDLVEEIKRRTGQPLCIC", "test": "SPR (ProteOn XPR36), HRS amine-coupled on GLC chip, purified scFv 500-30 nM injected, 25 C"}},
  "data": [
    {"binder": "anti-HRS scFv Biocon-H1 (scFv, Single clone from a human VH3-23/VL1g phage scFv library, expressed in E. coli periplasm; Periplasmic extract was used in the western blot and Luminex assay, Ni-NTA-purified scFv in SPR and ELISA; also called 항 HRS scFv 항체; 본 발명의 항체; not shown: tags from the pComb3X vector (purified on Ni-NTA, detected with anti-HA)) scFv: EVQLLESGGGLVQPGGSLRLSCAASGFTFSGYYMSWVRQAPGKGLEWVSLISHGGGNIYYADSVKGRFTISRDNSKNTLYLQMNSLRAEDTAVYYCARFPLEFDYWGQGTLVTVSSGGGGSGGGGSGGGGSQSVLTQPPSASGTPGQRVTISCTGSSSNIGSNAVSWYQQLPGTAPKLLIYDDNKRPSGVLDRFSGSKSGTSASLAISGLRSEDEADYYCGTWDDSLSGYVFGGGTKLTVL", "values": [
      {"measurement": "binding result", "setting": "[1]", "value": "no binding"},
      {"measurement": "binding result", "setting": "[2]", "value": "no binding"},
      {"measurement": "binding result", "setting": "[3]", "value": "no binding"},
      {"measurement": "binding result", "setting": "[4]", "value": "no binding"},
      {"measurement": "binding result", "setting": "[5]", "value": "no binding"},
      {"measurement": "binding result", "setting": "[6]", "value": "no binding"},
      {"measurement": "binding result", "setting": "[7]", "value": "no binding"},
      {"measurement": "Kd", "setting": "[8]", "value": 70, "unit": "nM"}
    ]}
  ]
}
